According to patent US20240180969A1 (published 2024):

Biological target: T1, peptide on HLA-A*11:01 (human)
T1 peptide: VVVGAVGVGK
Test: activation reporter or marker
Description: Jurkat NFAT-Luciferase effector cells (JNL) cells were transfected on day 1 with TCR or CAR constructs using standard protocols for the Neon™ transfection system (ThermoFisher MPK5000). T2 HLA-A*11 target cells were loaded with peptide […] (SEQ ID NO: 110). Peptides were resuspended in DMSO, and serially-diluted 20 times, 3× per dilution. Serially diluted peptide solutions were added to T2 HLA-A*11 cells resuspended in peptide-loading media (RPMI 1640+1% BSA+1×P/S). This yielded peptide-loaded T2 HLA-A*11 cells at approximately ˜0.67E6/mL, with peptide concentrations ranging from ˜10 fM to 100 μM, including a control at 0 μM. Peptide-loaded T2 HLA-A*11 cells were incubated overnight at 37° C. in 384-well plates, plated at 10,000 cells per well (Corning 3570). On day 2, transfected JNL cells (10,000 cells/well) were added to the peptide-loaded T2 HLA-A*11 cells to a final volume of 30 μL. After a 6-hour incubation at 37° C., the One-Step™ Luciferase assay system (Firefly luciferase, BPS Bioscience, 60690) was used to determine luminescence intensity on a Tecan Infinite® M1000.

B1: Positive Control TCR (TRAV3-3*01/TRBV4*01) (TCR, V domains shown)
Valpha: GEQVEQRPPHLSVREGDSAVITCTYTDPNSYYFFWYKQEPGASLQLLMKVFSSTEINEGQGFTVLLNKKDKRLSLNLTAAHPGDSAAYFCAVSGGTNSAGNKLTFGIGTRVLVRP
Vbeta: ETAVFQTPNYHVTQVGNEVSFNCKQTLGHDTMYWYKQDSKKLLKIMFSYNNKQLIVNETVPRRFSPQSSDKAHLNLRIKSVEPEDSAVYLCASSRDWGPAEQFFGPGTRLTVL
  binding result: recognises
